Measured values from patent US9144596.

How the values were obtained:
[1] = system: mutant (I-A,Y-A) APC peptide (1250-KVSSINQETAQTACVEDTPI-1269)
[2] = system: wild-type APC peptide (1250-KVSSINQETIQTYCVEDTPI-1269)

For “His-tagged pol-βwt protein (human pol-β, carboxyl-terminal hexahistidine tag, pET23d)”, the “dRP-lyase activity of pol-βwt (3'-end labeled U-DNA substrate)” value [1] was “APC(I-A,Y-A) did not show any effect on the dRP-lyase activity of pol-βwt” and the “dRP-lyase activity of pol-βwt (3'-end labeled U-DNA substrate)” value [2] was “a very efficient dRP-lyase activity of pol-βwt ..., which was blocked by APCwt peptide in a dose-dependent manner”.
